Assays:
[1] = target: 549-SNAP-VopF (Vibrio cholera (so in the source)); experiment: photobleaching step counting of single molecules
[2] = target: the molecule itself; experiment: photobleaching step counting of single molecules

Molecule: 549-SNAP-VopF (domain or fragment)
- stoichiometry N [1]: 2

B1: 549-SNAP-VopL (domain or fragment)
chain: LSIKHGSSIPPAPPLPGAIPPAPPLNLSKGAPKSSSNSLDSVNEDHSKLMEQIRQGVKLKSATKSLSADKSSADAHSKLMEELLTGGRKLKKVATSDIPAPPPLPSASTSKSPDSRNALLSEIAGFSKDRLRKTGSLETLNSSQSKDKESFEPTTHERLLSEDLFKQSPKLSEQELDELANNLADYLFQAADIDWHQVISEKTRGLTTEEMAKSEHRYVQAFCREILKYPDCYKSADVASPESPKSGGGSVIDVALKRLQTGRERLFTTTDEKGNRELKKGDAILESAINAARMAISTEEKNTILSNNVKSATFEVFCELPCMDGFAEQNGKTAFYALRAGFYSAFKNTDTAKQDITKFMKDNLQAGFSGYSYQGLTNRVAQLEAQLAALSAKLS
modifications: SNAP-Surface 549 on the SNAP-tag (labeling efficiency ~75%)
- stoichiometry N [2]: 2
